# Target: T1, recombinant His-tagged human FRα (human, UniProt P15328 25-234)
# T1 construct: Bought protein; also called hFRα; FRα-HIS
# Assay: BLI, n=2
# Experimental: The assay buffer used was KB buffer (kinetics buffer, composed of PBS pH 7.4, 0.1% BSA, 0.02% Tween 20, 0.05% sodium azide) supplemented with 0.06% Tween 20. The experiment was conducted at 25° C. with a shake speed of 1000 rpm.
# Data analysis was performed using the Data analysis software 9.0′ (ForteBio). The reference-subtracted binding curves were globally fitted to the 1:1 interaction model to generate the binding kinetic parameters kₒₙ, koff, and the dissociation constant KD.
# All parameters remained the same except for the dissociation phase which was recorded for 1500 s.
# T1 sequence (P15328 25-234 limits assumed): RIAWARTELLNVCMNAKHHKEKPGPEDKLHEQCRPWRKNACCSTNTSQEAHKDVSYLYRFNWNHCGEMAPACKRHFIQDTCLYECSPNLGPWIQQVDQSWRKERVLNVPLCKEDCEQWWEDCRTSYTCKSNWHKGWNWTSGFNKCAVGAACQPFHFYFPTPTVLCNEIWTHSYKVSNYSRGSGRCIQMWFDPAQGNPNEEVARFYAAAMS
row,Binder,Kd
1,"v29677 (scFv, One-armed, scFv at the N-terminus of Het FcA (Ala-Ala linker); also called N-term VL-(long)-VH) scFv: DIQMTQSPSSLSASVGDRVTITCQASQSIYSSLAWYQQKPGKAPKLLIYDASHLASGVPSRFSGSRYGTDFTLTISSVQPEDFATYYCQGGWYSSAATYVPNTFGGGTKVEVKGGSGGGSGGGSGGGSGGGSGEVQLVESGGGLVQPGGSLRLSCAASGFTISNNYYMCWVRQAPGKGLEWIACIYGGISGRTYYADSAKGRFTISKDSSNTVYLQMNSLRAEDTAVYYCVRGYVGTSNLWGQGTLVTVSS",5 nM
2,"v29679 (scFv, One-armed, scFv at the C-terminus of Het FcA (GGGG linker); also called C-term VH-(short)-VL) scFv: EVQLVESGGGLVQPGGSLRLSCAASGFTISNNYYMCWVRQAPGKGLEWIACIYGGISGRTYYADSAKGRFTISKDSSNTVYLQMNSLRAEDTAVYYCVRGYVGTSNLWGQGTLVTVSSGGGGSGGGGSGGGGSDIQMTQSPSSLSASVGDRVTITCQASQSIYSSLAWYQQKPGKAPKLLIYDASHLASGVPSRFSGSRYGTDFTLTISSVQPEDFATYYCQGGWYSSAATYVPNTFGGGTKVEVK",0.39 nM
3,"v29681 (scFv, One-armed, scFv at the C-terminus of Het FcA (GGGG linker); also called C-term VH-(long)-VL) scFv: EVQLVESGGGLVQPGGSLRLSCAASGFTISNNYYMCWVRQAPGKGLEWIACIYGGISGRTYYADSAKGRFTISKDSSNTVYLQMNSLRAEDTAVYYCVRGYVGTSNLWGQGTLVTVSSGGSGGGSGGGSGGGSGGGSGDIQMTQSPSSLSASVGDRVTITCQASQSIYSSLAWYQQKPGKAPKLLIYDASHLASGVPSRFSGSRYGTDFTLTISSVQPEDFATYYCQGGWYSSAATYVPNTFGGGTKVEVK",2.6 nM
4,"v29676 (scFv, One-armed: scFv fused by an Ala-Ala linker to the N-terminus (hinge) of Het FcA, paired with Het FcB Fc; also called N-term VL-(short)-VH) scFv: DIQMTQSPSSLSASVGDRVTITCQASQSIYSSLAWYQQKPGKAPKLLIYDASHLASGVPSRFSGSRYGTDFTLTISSVQPEDFATYYCQGGWYSSAATYVPNTFGGGTKVEVKGGGGSGGGGSGGGGSEVQLVESGGGLVQPGGSLRLSCAASGFTISNNYYMCWVRQAPGKGLEWIACIYGGISGRTYYADSAKGRFTISKDSSNTVYLQMNSLRAEDTAVYYCVRGYVGTSNLWGQGTLVTVSS",3.9 nM
5,"v29678 (scFv, also called C-term VL-(short)-VH) scFv: DIQMTQSPSSLSASVGDRVTITCQASQSIYSSLAWYQQKPGKAPKLLIYDASHLASGVPSRFSGSRYGTDFTLTISSVQPEDFATYYCQGGWYSSAATYVPNTFGGGTKVEVKGGGGSGGGGSGGGGSEVQLVESGGGLVQPGGSLRLSCAASGFTISNNYYMCWVRQAPGKGLEWIACIYGGISGRTYYADSAKGRFTISKDSSNTVYLQMNSLRAEDTAVYYCVRGYVGTSNLWGQGTLVTVSS",5.1 nM

# Continued, values first:
row,Kd,Binder
1,1.8 nM,"v29680 (scFv, One-armed, scFv at the C-terminus of Het FcA (GGGG linker); also called C-term VL-(long)-VH) scFv: DIQMTQSPSSLSASVGDRVTITCQASQSIYSSLAWYQQKPGKAPKLLIYDASHLASGVPSRFSGSRYGTDFTLTISSVQPEDFATYYCQGGWYSSAATYVPNTFGGGTKVEVKGGSGGGSGGGSGGGSGGGSGEVQLVESGGGLVQPGGSLRLSCAASGFTISNNYYMCWVRQAPGKGLEWIACIYGGISGRTYYADSAKGRFTISKDSSNTVYLQMNSLRAEDTAVYYCVRGYVGTSNLWGQGTLVTVSS"
2,0.88 nM,"v29684 (scFv, One-armed, scFv at the C-terminus of Het FcA; VL-G100C and VH-G44C already in the entry; also called C-term VL-(long)-VH + disulfide) scFv: DIQMTQSPSSLSASVGDRVTITCQASQSIYSSLAWYQQKPGKAPKLLIYDASHLASGVPSRFSGSRYGTDFTLTISSVQPEDFATYYCQGGWYSSAATYVPNTFGCGTKVEVKGGSGGGSGGGSGGGSGGGSGEVQLVESGGGLVQPGGSLRLSCAASGFTISNNYYMCWVRQAPGKCLEWIACIYGGISGRTYYADSAKGRFTISKDSSNTVYLQMNSLRAEDTAVYYCVRGYVGTSNLWGQGTLVTVSS"
3,4.1 nM,"v29675 (antibody, V domains shown, One-armed antibody, humanized 8K22 (H4L3 of v23807) Fab on a heterodimeric IgG1 Fc; also called N-term Parent Fab; Parent Fab antibody) VH: EVQLVESGGGLVQPGGSLRLSCAASGFTISNNYYMCWVRQAPGKGLEWIACIYGGISGRTYYADSAKGRFTISKDSSNTVYLQMNSLRAEDTAVYYCVRGYVGTSNLWGQGTLVTVSS VL: DIQMTQSPSSLSASVGDRVTITCQASQSIYSSLAWYQQKPGKAPKLLIYDASHLASGVPSRFSGSRYGTDFTLTISSVQPEDFATYYCQGGWYSSAATYVPNTFGGGTKVEVK"
4,1.1 nM,"v29683 (scFv, One-armed, scFv at the C-terminus of Het FcA; VL-G100C and VH-G44C already in the entry; also called C-term VH-(short)-VL + disulfide) scFv: EVQLVESGGGLVQPGGSLRLSCAASGFTISNNYYMCWVRQAPGKCLEWIACIYGGISGRTYYADSAKGRFTISKDSSNTVYLQMNSLRAEDTAVYYCVRGYVGTSNLWGQGTLVTVSSGGGGSGGGGSGGGGSDIQMTQSPSSLSASVGDRVTITCQASQSIYSSLAWYQQKPGKAPKLLIYDASHLASGVPSRFSGSRYGTDFTLTISSVQPEDFATYYCQGGWYSSAATYVPNTFGCGTKVEVK"
5,4.2 nM,"v29685 (scFv, One-armed, scFv at the C-terminus of Het FcA; VL-G100C and VH-G44C already in the entry; also called C-term VH-(long)-VL + disulfide) scFv: EVQLVESGGGLVQPGGSLRLSCAASGFTISNNYYMCWVRQAPGKCLEWIACIYGGISGRTYYADSAKGRFTISKDSSNTVYLQMNSLRAEDTAVYYCVRGYVGTSNLWGQGTLVTVSSGGSGGGSGGGSGGGSGGGSGDIQMTQSPSSLSASVGDRVTITCQASQSIYSSLAWYQQKPGKAPKLLIYDASHLASGVPSRFSGSRYGTDFTLTISSVQPEDFATYYCQGGWYSSAATYVPNTFGCGTKVEVK"
6,2.1 nM,"v29682 (scFv, One-armed, scFv at the C-terminus of Het FcA; VL-G100C and VH-G44C (Kabat) already in the entry; also called C-term VL-(short)-VH + disulfide) scFv: DIQMTQSPSSLSASVGDRVTITCQASQSIYSSLAWYQQKPGKAPKLLIYDASHLASGVPSRFSGSRYGTDFTLTISSVQPEDFATYYCQGGWYSSAATYVPNTFGCGTKVEVKGGGGSGGGGSGGGGSEVQLVESGGGLVQPGGSLRLSCAASGFTISNNYYMCWVRQAPGKCLEWIACIYGGISGRTYYADSAKGRFTISKDSSNTVYLQMNSLRAEDTAVYYCVRGYVGTSNLWGQGTLVTVSS"
